Drawing on patent publication US20080027001A1, “NOGO RECEPTOR FUNCTIONAL MOTIFS, PEPTIDE MIMETICS, AND MUTATED FUNCTIONAL MOTIFS RELATED THERETO, AND METHODS OF USING THE SAME” (priority 2006, published 2008), this text covers fold bound against mock-transfected control cells for one substance.

The experiment deals with human p75 neurotrophin receptor (p75NTR) expressed in CHO-K1 cells (human) (UniProt P08138). Nature of the experiment: AP fusion protein on CHO-K1 cells expressing cell-surface human p75NTR, fluorescent AP substrate.
Chain of human p75 neurotrophin receptor (p75NTR) expressed in CHO-K1 cells (human) (P08138 29-427): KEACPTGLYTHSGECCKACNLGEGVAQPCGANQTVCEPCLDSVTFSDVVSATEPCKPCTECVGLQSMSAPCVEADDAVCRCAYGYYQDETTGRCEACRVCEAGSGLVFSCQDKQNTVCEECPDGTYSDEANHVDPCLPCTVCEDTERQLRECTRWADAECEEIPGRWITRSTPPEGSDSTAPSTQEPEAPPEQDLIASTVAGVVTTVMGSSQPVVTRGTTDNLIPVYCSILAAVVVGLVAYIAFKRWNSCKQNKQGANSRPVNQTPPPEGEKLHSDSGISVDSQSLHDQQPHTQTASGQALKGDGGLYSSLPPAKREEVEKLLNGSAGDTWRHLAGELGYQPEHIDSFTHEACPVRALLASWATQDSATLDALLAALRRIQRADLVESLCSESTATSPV

Consider NgR-AP, for which the fold bound against mock-transfected control cells stood at 5 fold.
